Results: article PMC7946437, “Cardiolipin targets a dynamin-related protein to the nuclear membrane” (eLife, 2021)

What was measured:
[1] = biological target: T1, Drp6 (His-drp6) (Tetrahymena thermophila, UniProt Q38KF5, I553A); assay: Malachite Green phosphate release (BIOMOL Green); type: biochemical; conditions: 1 mM GTP, 1 µM protein, 25 mM HEPES pH 7.5, 15 mM KCl, 2 mM MgCl2, 37°C
T1 construct: full length aa 1-710, N-terminal His tag (pRSETB), expressed in E. coli C41(DE3), Ni-NTA; higher-order oligomer (at least six monomers)

[2] = substrate: Nc1nc2c(ncn2[C@@H]2O[C@H](COP(=O)(O)OP(=O)(O)OP(=O)(O)O)[C@@H](O)[C@H]2O)c(=O)[nH]1; assay: Malachite Green phosphate release (BIOMOL Green); type: biochemical, Tetrahymena thermophila; conditions: 25 mM HEPES pH 7.5, 15 mM KCl, 2 mM MgCl2, 37°C, 10 min, GTP 50-2000 µM
[3] = biological target: the molecule itself; assay: SEC; Superdex 200 GL 10/300; 500 µl of protein (0.5 mg/ml) in buffer A, 0.5 ml/min, absorbance at 280 nm; self-assembly into higher order oligomers

## Nc1nc2c(ncn2[C@@H]2O[C@H](COP(=O)(O)OP(=O)(O)OP(=O)(O)O)[C@@H](O)[C@H]2O)c(=O)[nH]1 [GTP]
[1]
  Malachite Green phosphate release (BIOMOL Green): does not affect its activity as assessed by the rate of GTP hydrolysis

B1: Tetrahymena dynamin-related protein 6 (Drp6), N-terminal histidine-tagged (natural protein, Tetrahymena thermophila, UniProt Q38KF5 1-710, looked up)
chain: MTNTIVPANNFQNIKEVIKVVNKLRDFGIESDKIQLPKIVVIGVQSSGKSSLLEQIVQLDFLPRGTGVVTRCPLEIRLIEVTNQDSDFKPYAYFFEERQKIFHDFELVKKEIQKITNDFAGPGKKIVDKVITLTIYQAQCPTLTLIDLPGMTLNSVGDQKDIERVTQDMTKKYIIEKTTIILCVIPINQDLENSLALNLARSVDENGERTIGVLTMIDIMNPGTNCENVLKNRQIPLLHRYYGMKPRSQKDINENVSVQEAIQREQLYFTSHQIYSMYPEYTGTNALTNKLSTLLDSHIRTFLPSIHKKIKMTLSERIKERQQLGNEFPTEVTQQLYELTNIINTSLNLFKQAMTNYDASEIQNIGKIKVDERVGKSYADFLFDKYLLICKKISEEQVFKVKMKDLIKELGKFRVQVNGFLPFEVFESQIKQKINLYETEAIVILEQLKEHVRKVLNHCIDLFPFPNNKIKKIMQDILQNFVQTEYNFTSSHIKTAFYCYKDCICSKMIDIHETESKLKQNHVYLQNDNQQKKVLYEYISKNKSFMEWTVQEIMIKAENLCNVPITMSDLQNTYTKAEEKVQNTDEVLRYSIIYYKYMDNFRKQISDQIPQCIQSLFINSLCKNLMVKVFQAIQSKEYKEIIEKNLKEDEIIATKRAKVIQSIQKLAKANDRLERLIDQGQNCNHMLSTTYGDEENYIHESLEDSDGIDD
notes: Dynamin-related protein 6 (Drp6) of Tetrahymena thermophila; the text calls the His-tagged protein the full-length protein; pRSETB vector; also called His-drp6; WT; source: E. coli C41(DE3), purified (Ni-NTA agarose); not shown: histidine tag, N-terminal, kept
[2]
  Km: 180 µM
[3]
  stoichiometry N: ≥ 6 monomers

B2: Drp6-I553M, N-terminal histidine-tagged (natural protein, Tetrahymena thermophila, UniProt Q38KF5 1-710, looked up)
chain: MTNTIVPANNFQNIKEVIKVVNKLRDFGIESDKIQLPKIVVIGVQSSGKSSLLEQIVQLDFLPRGTGVVTRCPLEIRLIEVTNQDSDFKPYAYFFEERQKIFHDFELVKKEIQKITNDFAGPGKKIVDKVITLTIYQAQCPTLTLIDLPGMTLNSVGDQKDIERVTQDMTKKYIIEKTTIILCVIPINQDLENSLALNLARSVDENGERTIGVLTMIDIMNPGTNCENVLKNRQIPLLHRYYGMKPRSQKDINENVSVQEAIQREQLYFTSHQIYSMYPEYTGTNALTNKLSTLLDSHIRTFLPSIHKKIKMTLSERIKERQQLGNEFPTEVTQQLYELTNIINTSLNLFKQAMTNYDASEIQNIGKIKVDERVGKSYADFLFDKYLLICKKISEEQVFKVKMKDLIKELGKFRVQVNGFLPFEVFESQIKQKINLYETEAIVILEQLKEHVRKVLNHCIDLFPFPNNKIKKIMQDILQNFVQTEYNFTSSHIKTAFYCYKDCICSKMIDIHETESKLKQNHVYLQNDNQQKKVLYEYISKNKSFMEWTVQEMMIKAENLCNVPITMSDLQNTYTKAEEKVQNTDEVLRYSIIYYKYMDNFRKQISDQIPQCIQSLFINSLCKNLMVKVFQAIQSKEYKEIIEKNLKEDEIIATKRAKVIQSIQKLAKANDRLERLIDQGQNCNHMLSTTYGDEENYIHESLEDSDGIDD
notes: Dynamin-related protein 6 (Drp6) of Tetrahymena thermophila with I553M, made by site-directed mutagenesis of the His-drp6 construct; pRSETB vector; same limits as His-drp6 are likely (point mutant of that construct); also called His-drp6-I553M; source: E. coli C41(DE3), purified (Ni-NTA agarose); not shown: histidine tag, N-terminal, kept
[2]
  Km: 384 µM
[3]
  binding result: binds

B3: Drp6-I553A, N-terminal histidine-tagged (natural protein, Tetrahymena thermophila, UniProt Q38KF5 1-710, looked up)
chain: MTNTIVPANNFQNIKEVIKVVNKLRDFGIESDKIQLPKIVVIGVQSSGKSSLLEQIVQLDFLPRGTGVVTRCPLEIRLIEVTNQDSDFKPYAYFFEERQKIFHDFELVKKEIQKITNDFAGPGKKIVDKVITLTIYQAQCPTLTLIDLPGMTLNSVGDQKDIERVTQDMTKKYIIEKTTIILCVIPINQDLENSLALNLARSVDENGERTIGVLTMIDIMNPGTNCENVLKNRQIPLLHRYYGMKPRSQKDINENVSVQEAIQREQLYFTSHQIYSMYPEYTGTNALTNKLSTLLDSHIRTFLPSIHKKIKMTLSERIKERQQLGNEFPTEVTQQLYELTNIINTSLNLFKQAMTNYDASEIQNIGKIKVDERVGKSYADFLFDKYLLICKKISEEQVFKVKMKDLIKELGKFRVQVNGFLPFEVFESQIKQKINLYETEAIVILEQLKEHVRKVLNHCIDLFPFPNNKIKKIMQDILQNFVQTEYNFTSSHIKTAFYCYKDCICSKMIDIHETESKLKQNHVYLQNDNQQKKVLYEYISKNKSFMEWTVQEAMIKAENLCNVPITMSDLQNTYTKAEEKVQNTDEVLRYSIIYYKYMDNFRKQISDQIPQCIQSLFINSLCKNLMVKVFQAIQSKEYKEIIEKNLKEDEIIATKRAKVIQSIQKLAKANDRLERLIDQGQNCNHMLSTTYGDEENYIHESLEDSDGIDD
notes: Dynamin-related protein 6 (Drp6) of Tetrahymena thermophila with I553A, made by site-directed mutagenesis of the His-drp6 construct; pRSETB vector; same limits as His-drp6 are likely (point mutant of that construct); also called His-drp6-I553A; I553A-Drp6; source: E. coli C41(DE3), purified (Ni-NTA agarose); not shown: histidine tag, N-terminal, kept
[3]
  binding result: binds
